# From patent CN117062835A (ONCORIS PONS, dated 2023)
# B1: 变体4(V4) (antibody, V domains shown)
# VH: EVQLVESGGGVVQPGRSLRLSCAASGFTFSSYVMHWVRQAPGKGLEWVAVISEDGSNKYNADSVKGRFTISRDNSKNTLYLQMNSLRAEDTAVYYCARENVRPYYDFWSGYSSEYYYYGLDVWGQGTTVTVSS
# VL: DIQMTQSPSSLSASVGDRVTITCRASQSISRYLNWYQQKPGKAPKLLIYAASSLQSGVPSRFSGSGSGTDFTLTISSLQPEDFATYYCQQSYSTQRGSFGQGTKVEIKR
# notes: also called 克隆4
# B2: 变体1(V1) (antibody, V domains shown)
# VH: EVQLVESGGGVVQPGRSLRLSCAASGFTFSSYDMHWVRQAPGKGLEWVAVISEDGSNKYNADSVKGRFTISRDNSKNTLYLQMNSLRAEDTAVYYCARENVRPYYDFWSGYSSEYYYYGLDVWGQGTTVTVS
# VL: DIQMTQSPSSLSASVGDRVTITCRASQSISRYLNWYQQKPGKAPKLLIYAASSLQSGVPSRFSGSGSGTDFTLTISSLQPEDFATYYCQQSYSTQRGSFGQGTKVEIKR
# What was measured:
# [1] = target: T1, 人类CD163蛋白(生物素化) (human, UniProt Q86VB7 46-1050, limits assumed, biotinylated (sites not given)); assay: BLI, b-huCD163 on SA biosensor, four antibody concentrations
# T1 construct: also called b-huCD163; 生物素标记的人类CD163
# [2] = target: T2, 加His标签的重组人类CD163(R&D Systems，编号1607-CD-050)蛋白 (human, UniProt Q86VB7 46-1050); assay: ELISA EC50 ratio; lower end of the range, tied to V4 through the highest EC50 of Table 7
# T2 construct: Bought recombinant protein coated on ELISA plates; also called 重组CD163蛋白; huCD163; not shown: His tag
# [3] = target: T2, 加His标签的重组人类CD163(R&D …); assay: ELISA EC50 ratio; upper end of the range, tied to V1 through the lowest EC50 of Table 7
# T2 sequence (Q86VB7 46-1050 limits assumed): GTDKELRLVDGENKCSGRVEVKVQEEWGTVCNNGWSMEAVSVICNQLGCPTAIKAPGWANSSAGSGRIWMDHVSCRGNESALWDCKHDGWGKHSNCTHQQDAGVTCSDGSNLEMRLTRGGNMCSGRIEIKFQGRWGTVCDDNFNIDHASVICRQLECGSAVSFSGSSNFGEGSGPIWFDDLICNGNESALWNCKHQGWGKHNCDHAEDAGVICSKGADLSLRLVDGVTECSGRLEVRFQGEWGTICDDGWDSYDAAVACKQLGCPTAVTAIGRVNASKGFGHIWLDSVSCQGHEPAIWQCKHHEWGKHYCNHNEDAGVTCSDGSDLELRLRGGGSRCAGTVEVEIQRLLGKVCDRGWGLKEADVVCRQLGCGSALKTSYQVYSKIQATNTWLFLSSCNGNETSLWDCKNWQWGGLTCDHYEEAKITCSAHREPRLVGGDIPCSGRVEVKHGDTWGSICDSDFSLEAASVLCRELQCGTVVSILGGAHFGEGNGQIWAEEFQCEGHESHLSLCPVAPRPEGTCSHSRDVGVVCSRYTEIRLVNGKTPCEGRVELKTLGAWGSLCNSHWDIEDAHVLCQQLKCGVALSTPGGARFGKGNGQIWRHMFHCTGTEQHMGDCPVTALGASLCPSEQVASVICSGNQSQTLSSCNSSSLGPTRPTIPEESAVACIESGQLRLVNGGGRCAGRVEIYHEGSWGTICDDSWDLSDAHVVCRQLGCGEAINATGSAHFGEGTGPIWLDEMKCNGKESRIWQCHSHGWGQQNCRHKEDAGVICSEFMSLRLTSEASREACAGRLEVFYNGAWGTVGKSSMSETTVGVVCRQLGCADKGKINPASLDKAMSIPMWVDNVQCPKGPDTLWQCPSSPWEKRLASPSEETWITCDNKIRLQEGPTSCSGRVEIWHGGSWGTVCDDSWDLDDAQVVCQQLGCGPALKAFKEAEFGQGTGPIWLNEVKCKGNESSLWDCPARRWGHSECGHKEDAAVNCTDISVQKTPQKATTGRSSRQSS
# T1 sequence (Q86VB7 46-1050 limits assumed): as above
binder,measurement,setting,value
B1,fold increase of affinity against AB101 parental Ab,[1],~3760 fold
same,fold stronger binding than AB101 parental antibody,[2],27 fold
B2,fold stronger binding than AB101 parental antibody,[3],45 fold
